Laboratory results from patent publication US20130183315A1 (GLENMARK PHARMACEUTICALS S A, published 2013).
Residue numbers refer to the chain shown, from its start.

Columns and labels:
[1] = target: T1, recombinant human OX40-his protein (human, UniProt P43489 29-214); test: SPR, antibody captured on protein A, OX40-his as analyte
T1 construct: Secretion driven by the native signal peptide of human TNFRSF4; also called recombinant histidine tagged human OX40 receptor extracellular domain; recombinant monovalent human OX40 receptor extracellular domain
T1 sequence: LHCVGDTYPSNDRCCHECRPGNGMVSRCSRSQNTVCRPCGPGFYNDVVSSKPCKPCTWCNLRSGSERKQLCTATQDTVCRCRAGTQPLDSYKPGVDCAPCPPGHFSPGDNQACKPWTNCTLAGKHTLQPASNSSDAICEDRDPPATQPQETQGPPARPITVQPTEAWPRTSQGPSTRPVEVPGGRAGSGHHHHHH
Procedure: (§1) Kinetic binding affinity constants (KD) were measured on protein-A captured antibody using recombinant histidine tagged human OX40 receptor extracellular domain as described in Example 1 as analyte. Measurements were conducted on a BIAcore 2000 (GE Healthcare—BIAcore, Uppsala, Sweden) at room temperature, and analyzed with the BiaEvaluation software (BIAcore; v4.1).
(§2) A CMS research grade sensor chip (GE Healthcare Europe GmbH, Glattbrugg, Switzerland; BR-1000-14) was activated by injecting 35 μl of a 1:1 N-hydroxysulfosuccinimide (NHS)/1-Ethyl-3-[3-dimethylaminopropyl]carbodiimide Hydrochloride (EDC) solution (v/v; 5 μl/min flow-rate; on flow paths 1 and 2). Protein-A (ref. P7837; Sigma-Aldrich Chemie GmbH, Buchs, Switzerland) was diluted to a final concentration of 50 μg/ml in acetate buffer pH 4.5 (GE, BR-1003-50; one pH unit below pI) and subsequently immobilized on the previously activated CMS sensor chip by injecting 35 μl on both flow path 1 and 2 (5 μl/min); this corresponded to approximately 1500 response units (RUs). The protein-A-CMS sensor chip was then deactivated by injecting 35 μl of ethanolamine solution (5 μl/min). Finally, two injections of 10 μl of glycine solution (GE, ref BR-1003-54; 10 mM; pH 1.5) were performed to release non-crosslinked protein-A molecules.
(§3) 10 μl of this diluted stock were subsequently injected on the flow-path 2 of the protein-A CMS chip (30 μl/min) to reach 200-250 RUs. Following this capture step, the recombinant histidine tagged human OX40 receptor extracellular domain was injected at different concentrations (50 nM to 0.4 μM) on the flow-path 1 and 2 (flow-path 1 being used as reference) at a 30 μl/min flow rate. After each binding event, surface was regenerated with glycine buffer pH 1.5 injected for 1 min (10 μl/min)

[2] = target: T1, recombinant human OX40-his protein; test: SPR (BIAcore): antibody captured on protein A chip, human OX40-his as analyte; analyte concentration not given
Procedure: as §1, §2, §3

[3] = target: T1, recombinant human OX40-his protein; test: SPR (BIAcore): antibody captured on protein A chip, human OX40-his as analyte; traces aligned at 0 s, falling phase only
Procedure: as §1
as §2, with “molecules. […]” for “molecules.”

[4] = target: T1, recombinant human OX40-his protein; test: SPR (BIAcore): antibody captured on protein A chip, human OX40-his as analyte
Procedure: as §1, §2, §3

[5] = target: T2, rat OX40 extracellular region Fc fusion protein (rat; human, UniProt P15725 20-210); test: ELISA on coated OX40 Fc fusion (2 µg/mL), anti-human F(ab')2-HRP detection
T2 construct: also called RRRR; rat OX40 protein
Procedure: (§4) Rat and human-rat OX40 proteins were formatted as Fc fusions proteins according to the method described in Example 1. For the ELISA, OX40 proteins were coated at 2 μg/mL, in PBS, overnight at 4° C. on high binding 96-well plates (Coastar). The plates were blocked with PBS 2% Bovine Serum Albumin (BSA) before incubation with the VH6/VL9 antibody or isotype control antibody. The plates were then washed and incubated with goat-anti human Ig F(ab′)2 fragment specific-HRP (Jackson ImmunoResearch Europe Ltd, Newmarket, UK). After washing, the plates were incubated with TMB substrate (Bio-Rad Laboratories AG, Reinach, Switzerland) to reveal antibody binding. The reaction was stopped by adding 2M H₂SO₄ and the optical density was read at 450 nm (OD 450 nm) on a Synergy HT2 spectrophotometer (Biotek, USA; distributor: WITTEC AG, Littau, Switzerland).
(§5) A binding ELISA was performed to test the reactivity of the VH6/VL9 antibody on human OX40 extracellular region (abbreviated HHHH with SEQ ID NO: 11), rat OX40 extracellular region (abbreviated RRRR with SEQ ID NO: 52), and on four human-rat chimeric proteins: RHRR (SEQ ID NO: 53), HRRR (SEQ ID NO: 54), HHRR (SEQ ID NO: 55), and RRHH (SEQ ID NO: 56).

[6] = target: T3, chimeric RRHH OX40 protein (Fc fusion) (human-rat chimera; human); test: as above
T3 chain (part 1 of 2): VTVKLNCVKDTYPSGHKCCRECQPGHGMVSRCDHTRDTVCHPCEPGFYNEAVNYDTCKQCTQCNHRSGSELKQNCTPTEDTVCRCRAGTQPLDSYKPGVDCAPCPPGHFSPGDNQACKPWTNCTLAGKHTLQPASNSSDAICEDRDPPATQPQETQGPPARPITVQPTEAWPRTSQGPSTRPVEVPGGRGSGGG
T3 chain (part 2 of 2): SAHHHHHH
Procedure: as §4, §5

[7] = target: T4, human OX40 expressed on the surface of human activated lymphocytes (human, UniProt P43489 29-277); test: cell-based or functional assay
T4 sequence: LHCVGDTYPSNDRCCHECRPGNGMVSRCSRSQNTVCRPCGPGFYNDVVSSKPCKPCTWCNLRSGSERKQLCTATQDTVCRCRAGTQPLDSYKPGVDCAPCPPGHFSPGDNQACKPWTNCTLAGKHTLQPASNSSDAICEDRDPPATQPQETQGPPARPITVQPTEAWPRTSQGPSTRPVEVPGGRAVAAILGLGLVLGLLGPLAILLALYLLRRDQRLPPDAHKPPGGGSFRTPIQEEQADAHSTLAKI

B1: VH7/VL9 (antibody, human IgG1, kappa, V domains shown)
VH: QVTLKESGPALVKPTQTLTLTCSFSGFSLSTSGMGVGWIRQPPGKALEWLAHIWWDDDKYYNTALKTRLTISKDTSKNQVVLTMTNMDPVDTATYYCARIDWDGFAYWGQGTLVTVSS
VL: EIVLTQSPATLSLSPGERATLSCRASSSVSYMHWYQQKPGQAPRPWIYATSNRATGIPARFSGSGSGTDYTLTISSLEPEDFAVYYCQQWSSNPWTFGQGTKVEIKR
notes: Humanized, IGHG1, kappa; also called humanized variant VH7/VL9
[1]
  Kd: 70 nM
  koff: 0.00312 s⁻¹
  kon: 44500 M⁻¹ s⁻¹

B2: VH4/VL4 (antibody, human IgG1, kappa, V domains shown)
VH: B1 VH with G37S, L50I, N62S, A64S
VL: EIVLTQSPATLSLSPGERATLSCRASSSVSYYMAWYQQKPGQAPRLLIYATSNRATGIPARFSGSGSGTDYTLTISSLEPEDFAVYYCQQWSSNPWTFGQGTKVEIKR
notes: Humanized, IGHG1, kappa
[2]
  binding result: binds

B3: VH5/VL9 (antibody, human IgG1, kappa, V domains shown)
VH: B1 VH with G37S, L50I
VL: B1 VL
notes: Humanized, IGHG1, kappa
[3]
  binding result: binds

B4: VH5/VL6 (antibody, human IgG1, kappa)
heavy: not shown
light: QIVLTQSPATLSLSPGERATLSCRASSSVSYYMAWYQQKPGQAPRPWIYATSNRATGIPARFSGSGSGTDYTLTISSLEPEDFAVYYCQQWSSNPWTFGQGTKVEIKRTVAAPSVFIFPPSDEQLKSGTASVVCLLNNFYPREAKVQWKVDNALQSGNSQESVTEQDSKDSTYSLSSTLTLSKADYEKHKVYACEVTHQGLSSPVTKSFNRGEC
notes: Humanized, IGHG1, kappa
[2]
  binding result: binds

B5: VH2/VL3 (antibody, human IgG1, kappa, V domains shown)
VH: B1 VH with G37S, L50I, H52R, N62S, A64S
VL: B2 VL with M33L
notes: Humanized, IGHG1, kappa
[4]
  binding result: no binding (tested: not printed)

B6: VH3/VL2 (antibody, human IgG1, kappa, V domains shown)
VH: B1 VH with S23T, G37S, L50I, N62S, A64S
VL: B2 VL with Y71F
notes: Humanized, IGHG1, kappa
[4]
  binding result: no binding (tested: not printed)

B7: VH5/VL5 (antibody, human IgG1, kappa)
heavy: not shown
light: B4 light with Q1E
notes: Humanized, IGHG1, kappa
[2]
  binding result: binds

B8: VH1/VL3 (antibody, human IgG1, kappa, V domains shown)
VH: B1 VH with S23T, G37S, L50I, H52R, N62S, A64S
VL: B2 VL with M33L
notes: Humanized, IGHG1, kappa
[4]
  binding result: no binding (tested: not printed)

B9: VH7/VL8 (antibody, human IgG1, kappa, V domains shown)
VH: B1 VH
VL: B1 VL with P45L, W46L
notes: Humanized, IGHG1, kappa
[2]
  binding result: binds

B10: VH6/VL9 antibody (antibody, human IgG1, kappa, V domains shown)
VH: B1 VH with L50I
VL: B1 VL
notes: Humanized, IGHG1, kappa; also called humanized anti-OX40 antibody VH6/VL9; VH6/VL9 IGHG1 format
[5]
  binding result: no binding (tested: not printed)
[6]
  binding result: no binding (tested: not printed)
[1]
  Kd: 101 nM
  koff: 0.00356 s⁻¹
  kon: 35400 M⁻¹ s⁻¹
[7]
  inhibition of mixed lymphocyte reaction (3H thymidine incorporation), EC50: ~0.1 µg/mL

B11: VH3/VL1 (antibody, human IgG1, kappa, V domains shown)
VH: B1 VH with S23T, G37S, L50I, N62S, A64S
VL: B2 VL with M33L, Y71F
notes: Humanized, IGHG1, kappa
[4]
  binding result: no binding (tested: not printed)

B12: VH1/VL2 (antibody, human IgG1, kappa, V domains shown)
VH: B1 VH with S23T, G37S, L50I, H52R, N62S, A64S
VL: B2 VL with Y71F
notes: Humanized, IGHG1, kappa
[4]
  binding result: no binding (tested: not printed)

B13: VH3/VL3 (antibody, human IgG1, kappa, V domains shown)
VH: B1 VH with S23T, G37S, L50I, N62S, A64S
VL: B2 VL with M33L
notes: Humanized, IGHG1, kappa
[4]
  binding result: no binding (tested: not printed)

B14: VH7/VL11 (antibody, human IgG1, kappa, V domains shown)
VH: B1 VH
VL: B1 VL with P45L, W46L, R53L, T55S
notes: Humanized, IGHG1, kappa
[2]
  binding result: binds

B15: VH2/VL2 (antibody, human IgG1, kappa, V domains shown)
VH: B1 VH with G37S, L50I, H52R, N62S, A64S
VL: B2 VL with Y71F
notes: Humanized, IGHG1, kappa
[4]
  binding result: no binding (tested: not printed)

B16: VH5/VL4 (antibody, human IgG1, kappa, V domains shown)
VH: B1 VH with G37S, L50I
VL: B2 VL
notes: Humanized, IGHG1, kappa
[2]
  binding result: binds

B17: VH1/VL1 antibody (antibody, human IgG1, kappa, V domains shown)
VH: B1 VH with S23T, G37S, L50I, H52R, N62S, A64S
VL: B2 VL with M33L, Y71F
notes: Humanized, IGHG1, kappa; also called first humanized antibody
[4]
  binding result: no binding (tested: not printed)

B18: VH7/VL7 (antibody, human IgG1, kappa, V domains shown)
VH: B1 VH
VL: B1 VL with H33A, P45L, W46L
notes: Humanized, IGHG1, kappa
[2]
  binding result: binds

B19: VH4/VL9 (antibody, human IgG1, kappa, V domains shown)
VH: B1 VH with G37S, L50I, N62S, A64S
VL: B1 VL
notes: Humanized, IGHG1, kappa
[3]
  binding result: binds

B20: VH2/VL1 (antibody, human IgG1, kappa, V domains shown)
VH: B1 VH with G37S, L50I, H52R, N62S, A64S
VL: B2 VL with M33L, Y71F
notes: Humanized, IGHG1, kappa
[4]
  binding result: no binding (tested: not printed)
